Measured values taken from patent US20140274782A1 (Stanford University, published 2014).

Experiments:
[1] = target: T1, GAL-galanin prepropeptide (GAL) (human, UniProt P22466 1-123, limits assumed); experiment: ProtoArray, GST-treated control array
T1 sequence (looked up): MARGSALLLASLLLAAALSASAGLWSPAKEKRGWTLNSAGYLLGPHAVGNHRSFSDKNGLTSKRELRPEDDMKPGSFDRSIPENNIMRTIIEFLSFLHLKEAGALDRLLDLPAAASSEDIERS
Description: (§1) Briefly, a ProtoArray (Invitrogen, version 5.0) was incubated overnight with 50 μg of GST or recombinant GSTtagged G9a SET domain and the cofactor SAM.
(§2) Arrays were analyzed using GenePix Pro 6.1 software (Molecular Devices) and feature values were assigned to proteins using the array list provided by Invitrogen. We designated the following criteria for “hits”: GST array signal-to-noise ratio (SNR) less than or equal to 1.5, G9a array SNR greater than or equal to 10, and a difference between the G9a array SNR and the GST array SNR of greater than or equal to 12. Hits were individually visually validated. Proteins were removed from the list of potential substrates if irregular array features appeared to interfere with the array spots or SNR calculations.

[2] = target: T2, GHRL-ghrelin/obestatin preprohormone (GHRL) (human, UniProt Q9UBU3 1-117, limits assumed); experiment: ProtoArray, GST-treated control array
T2 sequence (looked up): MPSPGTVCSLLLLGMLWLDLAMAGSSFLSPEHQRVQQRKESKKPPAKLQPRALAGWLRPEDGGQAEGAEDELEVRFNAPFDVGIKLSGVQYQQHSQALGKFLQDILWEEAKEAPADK
Description: as §1, §2

[3] = target: T3, TGDS-TDP-glucose 4,6-dehydratase (TGDS) (human, UniProt O95455 1-350); experiment: ProtoArray, GST-treated control array;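 note: human protein microarray (about 9500 recombinant proteins) incubated overnight with GST alone plus SAM cofactor as the negative control for G9a SET domain methylation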
T3 sequence (looked up): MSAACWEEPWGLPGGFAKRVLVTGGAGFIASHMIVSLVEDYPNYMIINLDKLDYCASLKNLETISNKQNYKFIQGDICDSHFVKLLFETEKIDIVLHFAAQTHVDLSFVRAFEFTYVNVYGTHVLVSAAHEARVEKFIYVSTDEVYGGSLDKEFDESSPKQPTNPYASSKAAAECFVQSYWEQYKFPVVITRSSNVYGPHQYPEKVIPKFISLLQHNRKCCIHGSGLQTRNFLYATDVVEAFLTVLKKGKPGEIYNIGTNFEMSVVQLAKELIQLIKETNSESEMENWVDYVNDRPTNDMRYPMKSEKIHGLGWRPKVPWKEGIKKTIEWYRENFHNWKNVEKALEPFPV

[4] = target: T4, KCTD7-potassium channel tetramerisation domain containing 7 (KCTD7) (human, UniProt Q96MP8 1-289, limits assumed); experiment: ProtoArray, GST-treated control array;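 note: human protein microarray (about 9500 recombinant proteins) incubated overnight with GST alone plus SAM cofactor as the negative control for G9a SET domain methylation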
T4 sequence (looked up): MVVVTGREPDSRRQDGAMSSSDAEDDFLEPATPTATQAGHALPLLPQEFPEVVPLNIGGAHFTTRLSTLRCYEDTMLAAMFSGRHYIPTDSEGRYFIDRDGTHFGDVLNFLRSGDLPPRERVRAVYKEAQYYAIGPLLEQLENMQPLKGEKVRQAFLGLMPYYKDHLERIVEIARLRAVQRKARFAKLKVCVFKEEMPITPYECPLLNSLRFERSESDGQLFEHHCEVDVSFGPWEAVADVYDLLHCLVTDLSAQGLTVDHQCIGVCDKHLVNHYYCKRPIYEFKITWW

SCGB2A2-Mammaglobin-A = SCGB2A2-Mammaglobin-A (human, UniProt Q13296 19-93, limits assumed); experiment: ProtoArray, GST-treated control array;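 note: human protein microarray (about 9500 recombinant proteins) incubated overnight with GST alone plus SAM cofactor as the negative control for G9a SET domain methylation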
[5] = target: T5, MOBKL3-Mps one binder kinase activator-like 3 (human, UniProt Q9Y3A3 1-225, limits assumed); experiment: ProtoArray, GST-treated control array;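 note: human protein microarray (about 9500 recombinant proteins) incubated overnight with GST alone plus SAM cofactor as the negative control for G9a SET domain methylation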
T5 sequence (looked up): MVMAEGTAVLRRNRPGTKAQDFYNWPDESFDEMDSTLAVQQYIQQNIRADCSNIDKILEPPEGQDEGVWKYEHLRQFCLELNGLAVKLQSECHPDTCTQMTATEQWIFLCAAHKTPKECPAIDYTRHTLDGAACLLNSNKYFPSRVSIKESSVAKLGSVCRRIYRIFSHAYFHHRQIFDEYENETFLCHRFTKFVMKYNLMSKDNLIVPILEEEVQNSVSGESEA

[6] = target: T6, CAB39L-Calcium-binding protein 39-like (human, UniProt Q9H9S4 1-337); experiment: ProtoArray, GST-treated control array
T6 sequence (looked up): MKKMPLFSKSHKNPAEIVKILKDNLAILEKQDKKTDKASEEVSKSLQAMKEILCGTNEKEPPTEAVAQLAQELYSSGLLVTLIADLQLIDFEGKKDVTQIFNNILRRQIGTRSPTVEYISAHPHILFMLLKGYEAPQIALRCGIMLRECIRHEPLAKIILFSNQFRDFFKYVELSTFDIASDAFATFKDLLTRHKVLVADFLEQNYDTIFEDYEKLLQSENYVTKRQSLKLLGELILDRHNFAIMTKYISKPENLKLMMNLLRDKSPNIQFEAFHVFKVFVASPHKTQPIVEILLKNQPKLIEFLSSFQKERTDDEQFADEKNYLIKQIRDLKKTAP

[7] = target: T7, Magmas-mitochondria-associated protein involved in granulocyte-macrophage colony-stimulating factor signal … (human, UniProt Q9Y3D7 1-125); experiment: ProtoArray, GST-treated control array
T7 sequence (looked up): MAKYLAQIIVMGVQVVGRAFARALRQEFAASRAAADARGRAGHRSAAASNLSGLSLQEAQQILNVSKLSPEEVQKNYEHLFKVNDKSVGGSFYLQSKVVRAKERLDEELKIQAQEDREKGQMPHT

[8] = target: T8, BHMT-betaine-homocysteine methyltransferase (BHMT) (human, UniProt Q93088 1-406); experiment: ProtoArray, GST-treated control array
T8 sequence (looked up): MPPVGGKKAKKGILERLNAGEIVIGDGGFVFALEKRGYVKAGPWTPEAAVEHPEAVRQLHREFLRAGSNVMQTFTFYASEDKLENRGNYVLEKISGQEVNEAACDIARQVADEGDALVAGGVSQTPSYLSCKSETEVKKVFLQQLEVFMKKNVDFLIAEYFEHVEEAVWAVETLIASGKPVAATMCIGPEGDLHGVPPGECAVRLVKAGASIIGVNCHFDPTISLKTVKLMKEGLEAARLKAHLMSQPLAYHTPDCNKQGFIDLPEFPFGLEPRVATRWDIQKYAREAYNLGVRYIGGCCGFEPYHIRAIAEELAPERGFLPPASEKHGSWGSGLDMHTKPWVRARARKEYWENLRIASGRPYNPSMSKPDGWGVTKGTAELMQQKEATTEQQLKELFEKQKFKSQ

[9] = target: MGC4473-hypothetical protein MGC4473 (MGC4473) (human); experiment: ProtoArray, GST-treated control array
[10] = target: T9, CCL24-C-C motif chemokine 24 (human, UniProt O00175 27-119, limits assumed); experiment: ProtoArray, GST-treated control array
T9 sequence (looked up): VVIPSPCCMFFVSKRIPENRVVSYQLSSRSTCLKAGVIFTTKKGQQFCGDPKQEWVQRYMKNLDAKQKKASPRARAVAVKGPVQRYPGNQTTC

[11] = target: LOC145788, G9a-methylated (human); experiment: ProtoArray, G9a array SNR minus GST array SNR
Description: as §1, §2
(§3) Protein arrays bearing almost 9500 recombinant human proteins were methylated using GST-tagged recombinant G9a SET domain or GST alone as a control as shown in FIG. 4. […] Results were filtered for proteins scoring a GST array signal-to-noise ratio (SNR) less than or equal to 1.5, a G9a array SNR greater to or equal to 10, and a difference between the G9a and GST SNRs of greater than or equal to 12. Subsequent proteins were individually inspected for irregular array features.

[12] = target: LOC400500, G9a-methylated (human); experiment: ProtoArray, G9a array SNR minus GST array SNR
Description: as §1, §2, §3

SCGB2A2-Mammaglobin-A, sequence (Q13296 19-93 limits assumed): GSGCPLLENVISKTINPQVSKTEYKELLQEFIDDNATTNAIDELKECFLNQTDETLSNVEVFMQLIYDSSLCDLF

B1: 3× Flag-3×MBT (designed binder)
chain: EEWSSSQPATGEKKECWSWESYLEEQKAITAPVSLFQDSQAVTHNKNGFKLGMKLEGIDPQHPSMYFILTVAEVCGYRLRLHFDGYSECHDFWVNANSPDIHPAGWFEKTGHKLQPPKGYKEEEFSWSQYLRSTRAQAAPKHLFVSQSHSPPPLGFQVGMKLEAVDRMNPSLVCVASVTDVVDSRFLVHFDNWDDTYDYWCDPSSPYIHPVGWCQKQGKPLTPPQDYPDPDNFCWEKYLEETGASAVPTWAFKVRPPHSFLVNMKLEAVDRRNPALIRVASVEDVEDHRIKIHFDGWSHGYDFWIDADHPDIHPAGWCSKTGHPLQPPLGPREPSSASPGG
notes: also called Flag-tagged 3×MBT; 3xFlag-3xMBT; not shown: made by PreScission cleavage of GST-3× Flag-3×MBT
binding result [1]: no binding (tested: GST array SNR <= 1.5) | binding result [2]: no binding (tested: GST array SNR <= 1.5) | GST Average SNR [3]: 1.15 | GST Average SNR [4]: 1.09 | GST Average SNR (SCGB2A2-Mammaglobin-A): 0.983 | GST Average SNR [5]: -0.451 | GST Average SNR [6]: 0.182 | GST Average SNR [7]: -1.16 | GST Average SNR [8]: 1.44 | GST Average SNR [9]: 0.0125 | GST Average SNR [10]: 0.109 | G9a-GST [11]: 13.8 | G9a-GST [12]: 29.1
